Laboratory results from patent US7183387 (Genentech, dated 2007).

B1: E27 IgG1 variant P331(350)E (antibody)
heavy: not shown
light: DIQLTQSPSSLSASVGDRVTITCRASKPVDGEGDSYLNWYQQKPGKAPKLLIYAASYLESGVPSRFSGSGSGTDFTLTISSLQPEDFATYYCQQSHEDPYTFGQGTKVEIKRTVAAPSVFIFPPSDEQLKSGTASVVCLLNNFYPREAKVQWKVDNALQSGNSQESVTEQDSKDSTYSLSSTLTLSKADYEKHKVYACEVTHQGLSSPVTKSFNRGEC
notes: also called IG2 200
B2: E27 IgG1 variant S298(317)N (antibody)
heavy: not shown
light: B1 light
notes: also called IG2 72
B3: E27 IgG1 variant P331(350)N (antibody)
heavy: not shown
light: B1 light
notes: also called IG2 199
B4: E27 IgG1 variant P331(350)S (antibody)
heavy: not shown
light: B1 light
notes: also called IG2 198
B5: E27 IgG1 variant R292(309)H (antibody)
heavy: not shown
light: B1 light
notes: also called IG2 81
B6: E27 IgG1 variant R301(320)M (antibody)
heavy: not shown
light: B1 light
B7: E27 IgG1 variant R292(309)N (antibody)
heavy: not shown
light: B1 light
notes: also called IG2 83
B8: E27 IgG1 variant P331(350)K (antibody)
heavy: not shown
light: B1 light
B9: E27 IgG1 variant S298(317)L (antibody)
heavy: not shown
light: B1 light
B10: E27 IgG1 variant R292(309)K (antibody)
heavy: not shown
light: B1 light
notes: also called IG2 80
B11: E27 IgG1 variant S298(317)V (antibody)
heavy: not shown
light: B1 light
notes: also called IG2 218
B12: E27 IgG1 variant S298(317)G (antibody)
heavy: not shown
light: B1 light
notes: also called IG2 70
B13: E27 IgG1 variant R292(309)Q (antibody)
heavy: not shown
light: B1 light
notes: also called IG2 82
B14: E27 IgG1 variant S298(317)T (antibody)
heavy: not shown
light: B1 light
notes: also called IG2 71

target: T1, human FcγRIIA-R131 α subunit extracellular domain-6His-GST fusion (human, UniProt P12318 34-217); test: ELISA, IgG:IgE hexamers on receptor-GST
T1 construct: also called FcγRIIA-Arg131; not shown: glutathione S-transferase (GST)
T1 sequence: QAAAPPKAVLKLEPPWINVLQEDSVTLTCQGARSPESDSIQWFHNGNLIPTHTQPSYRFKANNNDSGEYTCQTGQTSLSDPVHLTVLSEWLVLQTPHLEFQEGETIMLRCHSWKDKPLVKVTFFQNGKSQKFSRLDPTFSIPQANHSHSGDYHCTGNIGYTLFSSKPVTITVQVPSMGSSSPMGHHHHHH

| Binder | ratio to native IgG1 |
| --- | --- |
| B1 | 1.06 |
| B2 | 0.05 |
| B3 | 0.86 |
| B4 | 0.91 |
| B5 | 0.21 |
| B6 | 1.29 |
| B7 | 0.54 |
| B8 | 0.94 |
| B9 | 1.14 |
| B10 | 0.71 |
| B11 | 0.11 |
| B12 | 0.87 |
| B13 | 0.47 |
| B14 | 0.29 |

target: T2, human FcγRIIB α subunit extracellular domain-6His-GST fusion (human, UniProt P31994 43-217); test: ELISA, IgG:IgE hexamers on receptor-GST
T2 construct: not shown: glutathione S-transferase (GST)
T2 sequence: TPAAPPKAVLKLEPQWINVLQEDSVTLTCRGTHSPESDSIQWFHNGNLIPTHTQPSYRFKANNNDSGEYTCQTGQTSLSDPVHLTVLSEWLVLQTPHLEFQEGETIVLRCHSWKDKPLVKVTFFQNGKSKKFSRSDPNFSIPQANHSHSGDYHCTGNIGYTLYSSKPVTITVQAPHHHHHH

| Binder | ratio to native IgG1 |
| --- | --- |
| B1 | 0.91 |
| B2 | 0.08 |
| B3 | 0.65 |
| B4 | 0.78 |
| B5 | 0.12 |
| B6 | 1.56 |
| B7 | 0.29 |
| B8 | 0.71 |
| B9 | 1.42 |
| B10 | 0.75 |
| B11 | 0.17 |
| B12 | 0.63 |
| B13 | 0.25 |
| B14 | 0.27 |

target: T3, human FcγRIIIA-F158 α subunit extracellular domain-6His-GST fusion (human, UniProt P08637 17-208); test: ELISA, IgG:IgE hexamers on receptor-GST
T3 construct: also called FcγRIIIA-Phe158; not shown: glutathione S-transferase (GST)
T3 sequence (P08637 other isoform, or with tags, fused parts or gaps, form in doubt): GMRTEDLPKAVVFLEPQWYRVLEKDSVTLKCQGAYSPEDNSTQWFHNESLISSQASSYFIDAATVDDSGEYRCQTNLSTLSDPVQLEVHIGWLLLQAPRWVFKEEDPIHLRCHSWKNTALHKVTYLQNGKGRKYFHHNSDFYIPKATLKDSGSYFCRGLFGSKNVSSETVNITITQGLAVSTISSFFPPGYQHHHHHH

| Binder | ratio to native IgG1 |
| --- | --- |
| B1 | 0.42 |
| B2 | 0.06 |
| B3 | 0.23 |
| B4 | 0.58 |
| B5 | 0.92 |
| B6 | 0.48 |
| B7 | 0.88 |
| B8 | 0.33 |
| B9 | 0.34 |
| B10 | 1.15 |
| B11 | 0.33 |
| B12 | 0.46 |
| B13 | 0.45 |
| B14 | 0.73 |
